We go through nine sequences from the DeepSol protein solubility set.

A short description of this series: soluble on expression in E. coli; label from the status in PepcDB or PDB records.
As for “MSGSVSGCGSGGCSIVWFRRDLRVEDNPALAAAVRAGPVIALFVWAPEEEGHYHPGRVSRWWLKNSLAQLDSSLRSLGTCLITKRSTDSVASLLDVVKSTGASQIFFNHLYDPLSLVRDHRAKDVLTAQGIAVRSFNADLLYEPWEVTDELGRPFSMFAAFWERCLSMPYDPESPLLPPKKIISGDVSKCVADPLVFEDDSEKGSNALLARAWSPGWSNGDKALTTFINGPLLEYSKNRRKADSATTSFLSPHLHFGEVSVRKVFHLVRIKQVAWANEGNEAGEESVNLFLKSIGLREYSRYISFNHPYSHERPLLGHLKFFPWAVDENYFKAWRQGRTGYPLVDAGMRELWATGWLHDRIRVVVSSFFVKVLQLPWRWGMKYFWDTLLDADLESDALGWQYITGTLPDSREFDRIDNPQFEGYKFDPNGEYVRRWLPELSRLPTDWIHHPWNAPESVLQAAGIELGSNYPLPIVGLDEAKARLHEALSQMWQLEAASRAAIENGSEEG”, the “soluble on expression in E. coli” value is on record as “soluble”. With “MSLDIADVAKRTGVPASTLRYYEKKGLLKSLAGRGQRRQFAADVADRLALIALGQAAGFSLDEVGAMLVDLQVDRQMLMAKADELDARIKRLQAMSKGLRHAAQCPEKDHLACPKFQQLMKLSAAGALGEKQARTKAFVTDEGHHHHHH” the entry was “soluble”. The same measure for “MGSDKIHHHHHHMNYVKSKQRVADHGEVFTPAWLVEAMIDLVKDETERIDARFLEPACGSGNFLVPILQRKLAAVERKFGKSNFEKQHYALFAVMCTYGIELLADNIAECRANMLEIFADYLTLDESDELYRAAIYVLSQNLVHGDALKMRTSDGQPIAFAEWGYLGKGKFQRRDFRLDSLAMSSTFSVEGSLFAHLGKHEIFTPTRTYPPMTVSELAARAAEANL”: “not soluble”; for “AHHHHHHGSDSIIVYVSIHHKNTEKVAKVIAEVLNARLVKPWEIKPEELLKYDLIGFGSGIYYWKHHRALFELINKLPKVEGKKAFIFSTAGLNIPFINHRKLRKVLREKGFEIVGEFSCRGWDTNGWLAEIGGLNKGHPNEKDLENARKFAENLKASI”: “soluble”; for “MGSDKIHHHHHHMTWRIVHIHQSEKMRLKLDNLVIKKQGDEFTIPLSDISIIVAEGGDTVVTLRLLSALSKYNIALIVCDNHHLPTGIYHSQNGHFRAYKKLQAQLSWAPLQKDKLWQIIIYFKITNQQDVLAMQEKSLSTIQLLSDYREHIELGDRTNREGHAAKVYFNELFGKQFVRLTQQETDAVNAGLNYGYTIFRAQMARIIAGYGLNALIGIFHKNEYNQFNLADDLMEPFRQIVDVWVYMNLREADFLTYQHRLELTNLLNAKIRYGKENCSVTVAMDKFVKGFIRCIEDKDTNQFFCPVVSSLEMEKL”: “not soluble”. The same measure for “MFKVNEYFDGTVKSIAFSQAEGQATIGVMAAGEYEFGTAQREIMHVISGELNVKLPDSTDWETFSTGSQFNVPANSKFQLKVSVDTAYLCEYR”: “not soluble”. For “MSLAIRQHVGALFTDLYEVTMAQAYWAERMSGTAVFEIFFRKLPPGRSYIMAAGLADVVEFLEAFRFDEQDLRYLRGLGQFSDEFLRWLAGVRFTGDVWAAPEGTVIFPNEPAVQLIAPIIEAQLVETFVLNQIHLQSVLASKAARVVAAARGRPVVDFGARRAHGTDAACKVARTSYLAGAAGTSNLLAARQYGIPTFGTMAHSFVQAFDSEVAAFEAFARLYPATMLLVDTYDTLRGVDHVIELAKRLGNRFDVRAVRLDSGDLDELSKATRARLDTAGLEQVEIFASSGLDENRIAALLAARCPIDGFGVGTQLVVAQDAPALDMAYKLVAYDGSGRTKFSSGKVIYPGRKQVFRKLEHGVFCGDTLGEHGENLPGDPLLVPIMTNGRRIRQHAPTLDGARDWARQQIDALPPELRSLEDTGYSYPVAVSDRIVGELARLRHADTAEAHPGSNVVGAKAKRPEGHHHHHH”, the “soluble on expression in E. coli” value was “not soluble”. With “MSLAKIVNVRPVLLSTPYGFEGCAENALHLPNGIRGCSMVEITLDNGVKGLGEGYLGVFAPDVFTSIARLVGTAITGDDISNGYGAVLAKAKTVTAYWSLQGAAQHVISAIEIALVDALSRVREIPAVELFGGKKVESIAMYGSGGDSLHPQYMAQELEQLAQRGIQTIKIRARHHQAAKTIWTIEAGRQYGIRVAVDMTQNLSIEGQTAEQVQAFCDLIQRETGEELVFVEECLGLDKLTQLPLLALQEGIAVAGGEIVTTKEELFDRIDANYYNVVQPDASVLGGIGDTIAVCEYAKQRSVNPVVHSWGGPVAMMANYVAAFATGCSLIEYPMPHFELRNVMCNLESRIHDGHFHLGDDIGLGVTLTDDIEGQFPHTNDALYHCFPMEDGLQQLEDSHRHWVKAEGHHHHHH” the entry was “soluble”; with “MSLEKESEWKGPFYFILGADPQFGLIKAWSTGDCDNGGDEWEQEIRLTEQAVQAINELNPKPKFFVLCGDLIHAMPGKPWRTEQTEDLKRVLRAVDRAIPLVLVSGNHDIGNTPTAETVEEFCRTWGDDYFSFWVGGVLFLVLNSQFYENPSKCPSLKQAQDQWLDEQLSIARQRHCQHAIVFQHIPLFLESIDEDDDYYFNLSKSTRKELADKFIHAGVRVVFSGHYHRNAGGTYQNLDMVVSSAIGCQLGRDPHGLRVVVVTAEKIVHRYYSLDELSEKGIEDDLMDLEGHHHHHH”, “not soluble”.
